According to patent publication US20250177443A1 (ACADEMISCH ZIEKENHUIS LEIDEN H O D N LUMC, published 2025):

Key:
[1] = target: T1, HLA-A*03:01 (human); experiment: stable pHLA monomer refolding
T1 construct: also called HLA-A3

[2] = target: HLA-A*11:01 (human); experiment: stable pHLA monomer refolding
[3] = target: HLA-B*40:01 (human); experiment: stable pHLA monomer refolding
[4] = target: T2, HLA-A*02:01 (human); experiment: stable pHLA monomer refolding
T2 construct: also called HLA-A2

[5] = target: HLA-A*24:02 (human); experiment: stable pHLA monomer refolding
[6] = target: T3, Jchain (joining chain) peptide on HLA-A*24:02 (human); experiment: NSG mice with established U266 + HLA-A24 + luciferase; 3-6x10^6 TCR-transduced CD8 T cells i.v.; bioluminescence; full-length, on cells
T3 peptide: CYTAVVPLV
Description: (§1) Subsequently, mice were infused with 3-6×10\hat{ }6 Jchain HLA-A1, -A24, -A3 or -A11 TCR or irrelevant CMV TCR Td CD8 T cells after which tumor outgrowth was followed measuring bioluminescence at regular intervals (FIG. 7A,B).

[7] = target: T4, Jchain (joining chain) peptide on HLA-A*03:01 (human); experiment: killing
T4 peptide: ISDPTSPLRTR

[8] = target: T5, Jchain (joining chain) peptide on HLA-A*11:01 (human); experiment: NSG mice with established U266 + HLA-A11 + luciferase; 3-6x10^6 TCR-transduced CD8 T cells i.v.; bioluminescence; full-length, on cells
T5 peptide: ISDPTSPLRTR
Description: as §1

[9] = target: T4, Jchain (joining chain) peptide on …; experiment: NSG mice with established wild-type HLA-A3pos U266 + luciferase; TCR-transduced CD8 T cells i.v.; bioluminescence; complete eradication in hIL-7/hIL-15 NSG mice (FIG. 15); full-length, on cells
[10] = target: T5, Jchain (joining chain) peptide on …; experiment: killing
[11] = target: T6, Jchain (joining chain) peptide on HLA-A*01:01 (human); experiment: multimer staining
T6 peptide: YTAVVPLVY

[12] = target: T7, HLA-A*01:01 (human); experiment: stable pHLA monomer refolding
T7 construct: also called HLA-A1

ISDPTSPLRTR (also called ISD peptide) [Jchain derived peptide ISDPTSPLRTR (SEQ ID NO: 101)]
binding result [1]: binds | binding result [2]: binds

GETKMVETAL (also called GET peptide) [Jchain derived peptide GETKMVETAL (SEQ ID NO: 107)]
binding result [3]: binds

YTAVVPLV [Jchain derived peptide YTAVVPLV (SEQ ID NO: 105)]
binding result [4]: binds

CYTAVVPLV (also called CYT peptide) [Jchain derived peptide CYTAVVPLV (SEQ ID NO: 100)]
binding result [5]: binds

B1: TCR clone 10H11.11 (TCR, V domains shown)
Valpha: EDQVTQSPEALRLQEGESSSLNCSYTVSGLRGLFWYRQDPGKGPEFLFTLYSAGEEKEKERLKATLTKKESFLHITAPKPEDSATYLCAVLSGGSYIPTFGRGTSLIVHP
Vbeta: DTGVSQDPRHKITKRGQNVTFRCDPISEHNRLYWYRQTLGQGPEFLTYFQNEAQLEKSRLLSDRFSAERPKGSFSTLEIQRTEQGDSAMYLCASSPLLRDSEEKLFFGSGTQLSVL
fold lower tumor load than in CMV TCR control mice [6]: 209 fold

B2: TCR clone 16C7.9 (TCR, V domains shown)
Valpha: AQKITQTQPGMFVQEKEAVTLDCTYDTSDPSYGLFWYKQPSSGEMIFLIYQGSYDQQNATEGRYSLNFQKARKSANLVISASQLGDSAMYFCAMREDYTGGFKTIFGAGTRLFVKA
Vbeta: GAGVSQTPSNKVTEKGKYVELRCDPISGHTALYWYRQSLGQGPEFLIYFQGTGAADDSGLPNDRFFAVRPEGSVSTLKIQRTERGDSAVYLCASSLISGGNEQFFGPGTRLTVL
binding result [7]: no recognition | fold lower tumor load than in CMV TCR control mice [8]: 190 fold

VLAVFIKAV (also called VLA2 peptide) [Jchain derived peptide VLAVFIKAV (SEQ ID NO: 104)]
binding result [4]: binds

B3: TCR clone 5C8.16 (TCR, V domains shown)
Valpha: AQSVTQLDSHVSVSEGTPVLLRCNYSSSYSPSLFWYVQHPNKGLQLLLKYTSAATLVKGINGFEAEFKKSETSFHLTKPSAHMSDAAEYFCVVKWADSWGKLQFGAGTQVVVTP
Vbeta: AAGVIQSPRHLIKEKRETATLKCYPIPRHDTVYWYQQGPGQDPQFLISFYEKMQSDKGSIPDRFSAQQFSDYHSELNMSSLELGDSALYFCASSLGTGNFYEQYFGPGTRLTVT
fold lower tumor load than in CMV TCR control mice [9]: 70 fold | binding result [10]: no recognition

B4: TCR clone 13F6.6 (TCR, V domains shown)
Valpha: AQSVSQHNHHVILSEAASLELGCNYSYGGTVNLFWYVQYPGQHLQLLLKYFSGDPLVKGIKGFEAEFIKSKFSFNLRKPSVQWSDTAEYFCAASSGGYQKVTFGIGTKLQVIP
Vbeta: DVKVTQSSRYLVKRTGEKVFLECVQDMDHENMFWYRQDPGLGLRLIYFSYDVKMKEKGDIPEGYSVSREKKERFSLILESASTNQTSMYLCASSLRREVGDTQYFGPGTRLTVL
binding result [11]: recognises

B5: TCR clone 4G8.8 (TCR, V domains shown)
Valpha: AQTVTQSQPEMSVQEAETVTLSCTYDTSENNYYLFWYKQPPSRQMILVIRQEAYKQQNATENRFSVNFQKAAKSFSLKISDSQLGDTAMYFCAFMKHVEYGNKLVFGAGTILRVKS
Vbeta: DAGITQSPRHKVTETGTPVTLRCHQTENHRYMYWYRQDPGHGLRLIHYSYGVKDTDKGEVSDGYSVSRSKTEDFLLTLESATSSQTSVYFCAARDSANEKLFFGSGTQLSVL
binding result [11]: recognises

RIIVPLNNR (also called RII peptide) [Jchain derived peptide RIIVPLNNR (SEQ ID NO: 106)]
binding result [2]: binds

TAVVPLVY (also called TAV peptide) [Jchain derived peptide TAVVPLVY (SEQ ID NO: 102)]
binding result [12]: binds

VLAVFIKAVHV (also called VLA1 peptide) [Jchain derived peptide VLAVFIKAVHV (SEQ ID NO: 103)]
binding result [4]: binds
